Assay results as given in patent US20190233493A1 (Sanofi, published 2019).
*1 amine or outer side, *2 acyl side, *3 side chain or, on linkers, in order; H or OH if unused. Primed or numbered codes have the meaning given here. Side-chain parts run from the residue outwards. [ ]: non-standard residue; d: D form. The star is where a group is joined. PEG4′ = 2-[2-[2-[2-[2-aminoethoxy]ethoxy]ethoxy]ethoxy]propanoyl; αMeW = C[C@](N)(Cc1c[nH]c2ccccc12)C(=O)O; γGlu = O=C(O)[C@H](CCC(=O)[*:2])N[*:1]; Arg(Me) = CNC(=N)NCCC[C@H](N)C(=O)O; Stearoyl = CCCCCCCCCCCCCCCCCC(=O)*; Palmitoyl = CCCCCCCCCCCCCCCC(=O)*; Cit = NC(=O)NCCC[C@H](N)C(=O)O; αMeK = C[C@](N)(CCCCN)C(=O)O; Lauroyl = CCCCCCCCCCCC(=O)*; Nle = CCCC[C@H](N)C(=O)O; PEG2′ = PEG2 spacer unit; PEG2″ = not defined here; Aib = CC(C)(N)C(=O)O

B1: peptide of SEQ ID NO: 111 (peptide)
peptide: LEGREKVRAXIXXEGQSTWSXRKKX
modifications: Ac-L-E-G-R-E-K-V-R-A-K(Ac)-I-Aib-Aib-E-G-Q-S-T-W-S-Aib-R-K-K-K(PEG2-PEG2-PEG2-gE-gE-gE-gE-gE-Stea)-NH2
B2: peptide of SEQ ID NO: 122 (peptide)
peptide: LEGREKVRAQIXXEGXSTWSXRKKKX
modifications: Ac-L-E-G-R-E-K-V-R-A-Q-I-Aib-Aib-E-G-Nle-S-T-W-S-Aib-R-K-K-K-PEG4-PEG4-K(gE-gE-gE-gE-gE-Stea)-NH2

Target: T1, RXFP1 receptor (UniProt Q9HBX9 1-757, limits assumed)
T1 sequence (looked up): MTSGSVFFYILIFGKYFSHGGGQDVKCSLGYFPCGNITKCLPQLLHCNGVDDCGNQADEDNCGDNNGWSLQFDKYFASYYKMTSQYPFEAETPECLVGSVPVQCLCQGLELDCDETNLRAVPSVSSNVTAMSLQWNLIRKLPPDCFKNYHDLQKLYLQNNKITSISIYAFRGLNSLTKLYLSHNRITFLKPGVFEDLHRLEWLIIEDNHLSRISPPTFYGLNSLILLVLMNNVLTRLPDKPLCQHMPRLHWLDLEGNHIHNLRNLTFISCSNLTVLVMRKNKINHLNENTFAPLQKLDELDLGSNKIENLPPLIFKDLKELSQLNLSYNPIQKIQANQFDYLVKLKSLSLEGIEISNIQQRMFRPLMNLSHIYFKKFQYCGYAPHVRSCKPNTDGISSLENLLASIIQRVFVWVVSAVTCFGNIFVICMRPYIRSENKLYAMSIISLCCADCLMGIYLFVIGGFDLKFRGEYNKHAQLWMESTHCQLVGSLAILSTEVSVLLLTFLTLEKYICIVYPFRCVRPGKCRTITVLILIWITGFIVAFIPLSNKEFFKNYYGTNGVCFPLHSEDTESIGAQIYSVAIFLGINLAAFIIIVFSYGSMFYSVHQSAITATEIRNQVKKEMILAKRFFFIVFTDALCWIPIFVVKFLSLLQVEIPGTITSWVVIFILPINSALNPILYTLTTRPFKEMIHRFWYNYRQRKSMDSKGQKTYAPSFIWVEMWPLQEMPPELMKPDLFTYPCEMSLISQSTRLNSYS
Experiment: cell-based or functional assay

Binder | EC50 (nM), OVCAR 5 cells (cAMP) | EMax, OVCAR 5 cells (cAMP)
Ac-LEGREKVRAQI[Aib][Aib]EG[Nle]STWS[Aib]RKKK([γGlu-γGlu-PEG2″-PEG2″-PEG2″-γGlu-Stearoyl])-NH2 [peptide of SEQ ID NO: 106] | 0.34 nM | 93%
Ac-LEGREKVRAQI[Aib][Aib]EG[Nle]STWS[Aib]RKKK[PEG2″][PEG2″][PEG2″][γGlu][γGlu][γGlu]K([γGlu-Palmitoyl])-NH2 [peptide of SEQ ID NO: 107] | 0.63 nM | 85%
Ac-LEGREKVRAQI[Aib][Aib]EG[Nle]STWS[Aib]RKKK[PEG2″][PEG2″][PEG2″][PEG2″][γGlu][γGlu][γGlu]K([γGlu-Palmitoyl])-NH2 [peptide of SEQ ID NO: 108] | 0.15 nM | 94%
Ac-LEGREKVRAQI[Aib][Aib]EG[Nle]STWS[Aib]RKKK[PEG2″][PEG2″][PEG2″][γGlu][γGlu]K([γGlu-Palmitoyl])-NH2 [peptide of SEQ ID NO: 109] | 0.15 nM | 98%
Ac-LEGREKVRAQI[Aib][Aib]EG[Nle]STWS[Aib]RKK[PEG2″][PEG2″][PEG2″][γGlu][γGlu][γGlu]K([γGlu-Palmitoyl])-NH2 [peptide of SEQ ID NO: 110] | 0.17 nM | 80%
B1 | 0.21 nM | 92%
Ac-LEGREKVRAK(Ac)I[Aib][Aib]EG[Nle]STFS[Aib]RKK(Ac)K([PEG2″-PEG2″-PEG2″-γGlu-γGlu-γGlu-Stearoyl])-NH2 [peptide of SEQ ID NO: 112] | 0.32 nM | 88%
Ac-LEGREKVRAK(Ac)I[Aib][Aib]EGQSTWS[Aib]RKK(Ac)K([PEG2″-PEG2″-PEG2″-γGlu-γGlu-γGlu-Stearoyl])-NH2 [peptide of SEQ ID NO: 113] | 0.53 nM | 89%
Ac-LEGREKVRAK(Ac)I[Aib][Aib]EG[Nle]STWS[Aib]RKK(Ac)[PEG2″][PEG2″][PEG2″]K([γGlu-γGlu-γGlu-Palmitoyl])-NH2 [peptide of SEQ ID NO: 114] | 1.34 nM | 90%
Ac-LEGREKVRAK(Ac)I[Aib][Aib]EGQSTWS[Aib]RKKK([PEG2′-PEG2′-PEG2′-γGlu-γGlu-γGlu-γGlu-Stearoyl])-NH2 [peptide of SEQ ID NO: 115] | 0.17 nM | 93%
Ac-LEGREKVRAQI[Aib][Aib]EG[Nle]STWS[Aib]RK[PEG2′]K([PEG2′-γGlu-γGlu-γGlu-Palmitoyl])-NH2 [peptide of SEQ ID NO: 12] | 26.7 nM | 76%
Ac-LEGREKVRAK(Ac)I[Aib][Aib]EG[Nle]STWS[Aib]RKK(Ac)[PEG2′][PEG2′][PEG2′][PEG2′][γGlu][γGlu]K([γGlu-Palmitoyl])-NH2 [peptide of SEQ ID NO: 116] | 1 nM | 89%
Ac-LEGREKVRAK(Ac)I[Aib][Aib]EG[Nle]STWS[Aib]RKK(Ac)[PEG2′][PEG2′][PEG2′][γGlu][γGlu]K([γGlu-Palmitoyl])-NH2 [peptide of SEQ ID NO: 117] | 1.16 nM | 86%
Ac-LEGREKVRAQI[Aib][Aib]EG[Nle]STWS[Aib]RKK(Ac)[PEG2′][PEG2′][γGlu][γGlu]K([γGlu-Palmitoyl])-NH2 [peptide of SEQ ID NO: 118] | 1.79 nM | 86%
Ac-LEGREKVRAQI[Aib][Aib]EG[Nle]STWS[Aib]RKK(Ac)[PEG2′][PEG2′][PEG2′][γGlu][γGlu]K([γGlu-Palmitoyl])-NH2 [peptide of SEQ ID NO: 119] | 1.21 nM | 83%
Ac-LEGREKVRAK(Ac)I[Aib][Aib]EG[Nle]STWS[Aib]RKK(Ac)K([PEG2′-PEG2′-PEG2′-γGlu-γGlu-γGlu-Lauroyl])-NH2 [peptide of SEQ ID NO: 120] | 110 nM | 92%
Ac-LEGREKVRAQI[Aib][Aib]EG[Nle]STWS[Aib]RKK(Ac)[PEG2′][PEG2′][PEG2′][PEG2′][γGlu][γGlu]K([γGlu-Palmitoyl])-NH2 [peptide of SEQ ID NO: 121] | 0.76 nM | 91%
B2 | 0.1 nM | 93%
Ac-LEGREKVRAK(Ac)I[Aib][Aib]EG[Nle]STWS[Aib]RKK(Ac)[PEG4′]K([γGlu-γGlu-γGlu-Stearoyl])-NH2 [peptide of SEQ ID NO: 123] | 0.38 nM | 88%
Ac-LEGREKVRAK(Ac)I[Aib][Aib]EG[Nle]STWS[Aib]RKK(Ac)[PEG4′][PEG4′]K([γGlu-γGlu-γGlu-Stearoyl])-NH2 [peptide of SEQ ID NO: 124] | 0.29 nM | 88%
Ac-LEGREKVRAK(Ac)I[Aib][Aib]EG[Nle]ST[αMeW]S[αMeK]RKK(Ac)[PEG2′][PEG2′][PEG2′]K([γGlu-γGlu-γGlu-γGlu-Palmitoyl])-NH2 [peptide of SEQ ID NO: 125] | 0.1 nM | 89%
Ac-LEGREKVRAQI[Aib][Aib]EG[Nle]STWS[Aib]RK[PEG2′]K([PEG2′-PEG2′-γGlu-γGlu-γGlu-Palmitoyl])-NH2 [peptide of SEQ ID NO: 13] | 8.1 nM | 81%
Ac-LEGREKVRAK(Ac)I[Aib][Aib]EG[Nle]STWS[Aib][Cit]AK(Ac)K([PEG2′-PEG2′-PEG2′-γGlu-γGlu-γGlu-Stearoyl])-NH2 [peptide of SEQ ID NO: 126] | 9.6 nM | 91%
Ac-LEGREKVRAK(Ac)I[Aib][Aib]EG[Nle]STWS[Aib]RKK(Ac)K([PEG2′-PEG2′-PEG2′-γGlu-γGlu-γGlu-γGlu-Stearoyl])-NH2 [peptide of SEQ ID NO: 128] | 0.22 nM | 91%
Ac-LEGREKVRAK(Ac)I[Aib][Aib]EG[Nle]STWS[αMeK][Cit]KK(Ac)K([PEG2′-PEG2′-PEG2′-γGlu-γGlu-γGlu-Stearoyl])-NH2 [peptide of SEQ ID NO: 129] | 1 nM | 89%
Ac-LEGREKVRAK(Ac)I[Aib][Aib]EG[Nle]STWS[Aib]RKK(Ac)K([PEG2′-PEG2′-PEG2′-PEG2′-γGlu-γGlu-γGlu-γGlu-Palmitoyl])-NH2 [peptide of SEQ ID NO: 130] | 0.3 nM | 93%
Ac-LEGREKVRAK(Ac)I[Aib][Aib]EG[Nle]STWS[αMeK]RKK(Ac)[PEG2′][PEG2′][PEG2′][PEG2′]K([γGlu-γGlu-γGlu-γGlu-Palmitoyl])-NH2 [peptide of SEQ ID NO: 131] | 0.26 nM | 92%
Ac-LEGREKVRAK(Ac)I[Aib][Aib]EG[Nle]STWS[αMeK][Cit]AK(Ac)K([PEG2′-PEG2′-PEG2′-PEG2′-γGlu-γGlu-γGlu-Stearoyl])-NH2 [peptide of SEQ ID NO: 132] | 1.7 nM | 87%
Ac-LEGREKVRAK(Ac)I[Aib][Aib]EG[Nle]STWS[Aib][Arg(Me)]KK(Ac)K([PEG2′-PEG2′-PEG2′-γGlu-γGlu-γGlu-Stearoyl])-NH2 [peptide of SEQ ID NO: 133] | 0.01 nM | 83%
